Settings: Rattus norvegicus, pH 7, Fluorescence, Sodium-Potassium phosphate 0.1 M; for denaturant m value / denaturant midpoint (higher = more stable) / unfolding free energy: 15 °C, GdnHCl; for Tm / change of melting temperature, mutant - wild type (higher = more stable): Thermal

Chain of Cytochrome c, somatic P31A|Y68F, P62898 P31A Y68F (P62898 whole entry P31A/Y68F): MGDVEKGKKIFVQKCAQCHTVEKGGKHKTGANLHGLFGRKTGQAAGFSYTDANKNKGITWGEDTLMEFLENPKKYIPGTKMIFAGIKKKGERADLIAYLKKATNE
Chain of Cytochrome c, somatic P31A, P62898 (P62898 whole entry P31A): as the sequence (P62898 whole entry P31A/Y68F) above, with F68Y counted along it
Chain of Cytochrome c, somatic Y68F, P62898 (P62898 whole entry Y68F): as the sequence (P62898 whole entry P31A/Y68F) above, with A31P counted along it
Chain of Cytochrome c, somatic wild type, P62898 (P62898 whole entry): as the sequence (P62898 whole entry P31A/Y68F) above, with A31P, F68Y counted along it

Substance: Cytochrome c, somatic P31A, P62898
- denaturant m value (structure 1I5T): 0.7 kcal/mol/M
- denaturant midpoint (higher = more stable) (structure 1I5T): 5.38 M
- unfolding free energy (structure 1I5T): 3.76 kcal/mol
- Tm (structure 1I5T): 51 °C
- change of melting temperature, mutant - wild type (higher = more stable) (structure 1I5T): -9 °C

Substance: Cytochrome c, somatic Y68F, P62898
- denaturant m value (structure 1I5T): 0.86 kcal/mol/M
- denaturant midpoint (higher = more stable) (structure 1I5T): 8.33 M
- unfolding free energy (structure 1I5T): 7.19 kcal/mol
- Tm (structure 1I5T): 90 °C
- change of melting temperature, mutant - wild type (higher = more stable) (structure 1I5T): 30 °C

Substance: Cytochrome c, somatic P31A|Y68F, P62898 P31A Y68F
- denaturant m value (structure 1I5T): 1.16 kcal/mol/M
- denaturant midpoint (higher = more stable) (structure 1I5T): 5.81 M
- unfolding free energy (structure 1I5T): 6.74 kcal/mol
- Tm (structure 1I5T): 62 °C
- change of melting temperature, mutant - wild type (higher = more stable) (structure 1I5T): 2 °C

Substance: Cytochrome c, somatic wild type, P62898
- denaturant m value: 1.21 kcal/mol/M
- denaturant midpoint (higher = more stable): 7.6 M
- unfolding free energy: 9.15 kcal/mol
- Tm: 60 °C
